Laboratory results: US7285703B2, “Plant like starches and the method of making them in hosts” (BASF Plant Science GmbH, priority 1998, dated 2007)

B1: maize starch synthase SSIIa-1, putative full length SSIIa (669 amino acids), N-terminus AEAEAGGK (SEQ ID NO:68) (Zea mays) (protein)
chain: AEAEAGGKDAPPERSGDAARLPRARRNAVSKRRDPLQPVGRYGSATGNTARTGAASCQNAALADVEIVEIKSIVAAPPTSIVKFPGRGLQDDPSLWDIAPETVLPAPKPLHESPAVDGDSNGIAPPTVEPLVQEATWDFKKYIGFDEPDEAKDDSRVGADDAGSFEHYGTMILGLCGENVMNVIVVAAECSPWCKTGGLGDVVGALPKALARRGHRVMVVVPRYGDYVEAFDMGIRKYYKAAGQDLEVNYFHAFIDGVDFVFIDASFRHRQDDIYGGSRQEIMKRMILFCKVAVEVPWHVPCGGVCYGDGNLVFIAMNWHTALLPVYLKAYYRDHGLMQYTRSVLVIHNIGHQGRGPVHEFPYMDLLNTNLQHFELYDPVGGEHANIFAACVLKMADRVVTVSRGYLWELKTVEGGWGLHDIIRSNDWKINGIRERIDHQEWNPKVDVHLRSDGYTNYSLETLDAGKRQCKAALQRDVGLEVRDDVPLLGFIGRLDGQKGVDIIGDAMPWIAGQDVQLVMLGTGPPDLERMLQHLEREHPNKVRGWVGFSVLMVHRITPGASVLVMPSRFAGGLNQLYAMAYGTVPVVHAVGGLRDTVAPFDPFGDAGLGWTFDRAEANKLIEVLSHCLDTYRNYEESWKSLQARGMSQNLSWDHAAELYEDVLVKYQW
B2: pEXS-wx: maize GBSS (waxy), N-terminus ASAGMNVVFV, expressed from this plasmid in E. coli BL21 (DE3) (protein, UniProt P04713 73-605, looked up)
Granule-bound starch synthase …: ASAGMNVVFVGAEMAPWSKTGGLGDVLGGLPPAMAANGHRVMVVSPRYDQYKDAWDTSVVSEIKMGDGYETVRFFHCYKRGVDRVFVDHPLFLERVWGKTEEKIYGPVAGTDYRDNQLRFSLLCQAALEAPRILSLNNNPYFSGPYGEDVVFVCNDWHTGPLSCYLKSNYQSHGIYRDAKTAFCIHNISYQGRFAFSDYPELNLPERFKSSFDFIDGYEKPVEGRKINWMKAGILEADRVLTVSPYYAEELISGIARGCELDNIMRLTGITGIVNGMDVSEWDPSRDKYIAVKYDVSTAVEAKALNKEALQAEVGLPVDRNIPLVAFIGRLEEQKGPDVMAAAIPQLMEMVEDVQIVLLGTGKKKFERMLMSAEEKFPGKVRAVVKFNAALAHHIMAGADVLAVTSRFEPCGLIQLQGMRYGTPCACASTGGLVDTIIEGKTGFHMGRLSVDCNVVEPADVKKVATTLQRAIKVVGTPAYEEMVRNCMIQDLSWKGPAKNWENVLLSLGVAGGEPGVEGEEIAPLAKENVAAP
modifications: expressed in E. coli

Assays:
[1] = substrate: Nc1ncnc2c1ncn2[C@@H]1O[C@H](COP(=O)(O)OP(=O)(O)O[C@H]2O[C@H](CO)[C@@H](O)[C@H](O)[C@H]2O)[C@@H](O)[C@H]1O; assay: ADPGlc kinetics of starch synthase SSIIa-1; format: biochemical, maize; conditions: other: amylopectin as primer, −citrate, 27° C.
From the text: FIG. 59. SSIIa-1 and SSIIa-2 construct diagram. Two forms of SSIIa were constructed in the pET expression system. pExs3c encodes SSIIa-1, the putative full length maize SSIIa which has the N-terminal sequence AEAEAGGK (SEQ ID NO:68). […] A depiction of the waxy gene, encoding GBSS which has the N-terminal sequence ASAGMNVV (SEQ ID NO:67), is also included for comparison. The amino acid motif KTGGL (SEQ ID NO:10), the putative binding site for ADPGlc, is indicated by the triangles. The KTGGL (SEQ ID NO:10) motif is located 18 amino acids from the N-terminus in GBSS, while the motif is 194 amino acids from the N-terminus in maize SSIIa.
5 mL of supernatant were used to assay STS and SBE activities as previously described (Preiss) with minor modification. […] […] The unincorporated [^14C]-ADPGlc was separated with Dowex anion exchange column (200-400 mesh, Sigma Chemical Co.). One unit of activity is defined as 1 nmol Glc incorporated into the a-glucan per min at 25° C. SBE activity was determined by phosphorylase stimulation assay. One unit of activity is defined as 1 mmol Glc incorporated into the a-glucan per min at. 30° C. […]

[2] = tested on: maize starch synthases; assay: Expression of maize starch synthases in Escherichia coli BL21 (DE3): specific activity; format: biochemical; conditions: 25° C., 5 mg/mL glycogen as primer

Molecule	Km [1]	Specific Activities [2]
B1	460 ± 60 µM	–
B2	–	0.033 units/mg Protein
